Residue numbers refer to the chain shown, from its start.

The subject of one assay is Tie1. The assay can be described thus: Immunohistochemistry of mouse xenograft tumor sections (SW480). It is filed as binding. Conditions: biotinylated antibody 10 μg/ml, formalin-fixed paraffin sections. As for the experimental part: We determined if antibody E3 binds to mouse endothelial cells in mouse xenographs. Immunohistochemistry was performed with biotinylated E3 IgG1 (a,z allotype) antibody and control antibodies anti-CD31 (endothelial cell specific marker) and anti-PCNA (proliferating cell nuclear antigen). Formalin-fixed tumor tissues from a mouse-xenograph containing SW480 cells (ATCC) were tested for the binding pattern of the human anti-Tie1 antibody E3. 5 μm sections of paraffin embedded tissues were deparaffinized, rehydrated and pretreated with warm the citrate buffer (0.01 M sodium citrate, pH6 at 95° C.) for 45 min. The slides were cooled down in fresh citrate buffer for 20 min and rinsed with distilled water. The slides were hydrogen peroxide treated, (0.3% H2O2 in PBS), and preincubated with PBS, 5% FCS, 5% heat inactivated human serum (HS) for 1 hour. Between antibody incubations slides were washed 3 times 5 minutes in PBS. Biotinylated antibodies E3 and A2-SV were diluted to a concentration of 10 μg/ml in PBS, 10% HS and incubated for 1 hour at RT. Slides were then incubated with an avidin-HRP (Dako) for 30 minutes at room temperature. Staining was detected by AEC (Vector Laboratories, Burlingame) and H2O2. The peroxidase reaction was stopped with water and slides were counter-stained with haematoxylin. The tissues were evaluated for their binding reactivity.

For the next assay, the system named is HUVEC. The assay is described as follows: Flow cytometry on HUVEC control cells. It is filed as binding, human. As for the experimental part: Specific binding of the Tie1 antibodies and of control Mabs to mouse endothelial cells was measured by flow cytometry analysis (FACSscan, Becton Dickinson, Oxnard, Epics, Coulter). Mouse endothelial cell lines MS1, Le-2, Bend3, SVEC (ATCC, Rockville) and Tie1 transfected Le-2 cells were stained. Cell staining was modified from existing protocols. About 200,000 cells were used in each experiment: after trypsinization, cells were washed one time in PBS and resuspended PBS, 10% heat inactivated human serum (incubation buffer). To test specificity, antibodies were incubated at different dilutions for 1 h at room temperature. Cells were spun down by centrifugation for 3 min at 611 g. Between incubations cells were washed twice with PBS. […] After the final incubation step bound antibodies were detected by means of flow cytometry on a FACSCan and Epics Altra (Becton Dickinson, Oxnard, Coulter) and results analyzed.
Intracellular Tie1 was measured as described above, except for the addition of Saponin to the incubation buffer to a final concentration of 0.1% during incubations. […] The binding pattern in mouse cell lines detected by flow cytometry is different from the binding pattern in HUVEC in that in mouse cells there is a greater cell surface staining than that compared to primary human endothelial cell lines. […]
For orientation: A flow cytometer gives signals particle by particle.

The next assay concerns the target T1, human Tie1 Fc (Homo sapiens, UniProt P35590).
T1 construct: selected against the Tie1 extracellular domain fused to human Fc or to a histidine purification tag
T1 sequence (P35590 22-759 limits assumed): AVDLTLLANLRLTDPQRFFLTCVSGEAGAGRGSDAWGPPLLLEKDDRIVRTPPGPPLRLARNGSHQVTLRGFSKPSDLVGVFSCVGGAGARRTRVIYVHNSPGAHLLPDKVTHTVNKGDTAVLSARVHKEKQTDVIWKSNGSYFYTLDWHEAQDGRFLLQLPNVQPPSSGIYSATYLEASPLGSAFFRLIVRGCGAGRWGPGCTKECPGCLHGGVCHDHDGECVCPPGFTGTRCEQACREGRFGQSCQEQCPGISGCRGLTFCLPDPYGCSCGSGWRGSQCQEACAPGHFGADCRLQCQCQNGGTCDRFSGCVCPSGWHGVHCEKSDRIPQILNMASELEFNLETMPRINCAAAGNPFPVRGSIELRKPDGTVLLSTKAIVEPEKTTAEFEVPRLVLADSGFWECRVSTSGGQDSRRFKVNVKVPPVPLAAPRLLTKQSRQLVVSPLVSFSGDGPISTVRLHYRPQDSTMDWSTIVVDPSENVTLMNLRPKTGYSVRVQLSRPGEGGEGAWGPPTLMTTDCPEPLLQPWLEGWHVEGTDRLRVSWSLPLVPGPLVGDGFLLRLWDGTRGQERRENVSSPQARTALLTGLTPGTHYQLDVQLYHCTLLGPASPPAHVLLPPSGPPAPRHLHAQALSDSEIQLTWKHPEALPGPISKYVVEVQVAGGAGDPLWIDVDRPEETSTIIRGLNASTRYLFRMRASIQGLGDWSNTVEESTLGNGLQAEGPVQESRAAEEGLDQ
The assay is described as follows: BIAcore, Fab over Tie1/Fc coated on CM5 chip. It is filed as binding. Conditions: Fab analyte. An excerpt: To evaluate if the binding behaviour had been affected in any way by the conversion of the somatic mutations back to germline residues, the parental and the germlined E3b antibodies were produced and tested in Biacore as Fab fragments. Here, by contrast to what was done for the IgGs (see Example 28), and in order to measure a monovalent interaction, the Fabs were run over the antigen directly coated onto the surface.
Recombinant human Tie1/Fc was coated on a CM5 chip. The surface of the chip was first activated with a 7-minute pulse of 0.05 M NHS/0.2 M EDC, then Tie1/Fc (2 μg/ml in 10 mM sodium acetate, pH 4.0) was run over the chip surface until 750 RUs were coated on the surface. All flow cells were subsequently deactivated with a 7-minute pulse of 1 M ethanolamine hydrochloride, pH 8.5. All further experiments were performed in HBS buffer.
The parental and the germlined E3b Fabs were prepared. A series of dilution (50, 25, 12.5, 6.25 and 3.125 nM) was prepared in HBS buffer. Samples were injected at 30 μl/min for 5.3 minutes using the KINJECT™ program. This was followed by a 10-minute dissociation phase, and the remaining Fab was stripped from the surface with a single 18-sec injection of 50 mM NaOH/1 M NaCl.
Sensorgrams were analyzed using the simultaneous ka/kd fitting program from the BIAEVALUATION™ software 3.1 assuming a 1:1 model.

B1: E3: human anti-Tie1 antibody from phage Fab library, reformatted as IgG; HC variable SEQ ID NO:114, LC variable SEQ ID NO:116 (antibody, V domains shown)
VH: EVQLLESGGGLVQPGGSLRLSCAASGFTFSMYGMVWVRQAPGKGLEWVSVISPSGGNTGYADSVKGRFTISRDNSKNTLYLQVNSLRAEDTAVYYCARAPRGYSYGYYYWGQGTLVTVSSASTKGPSVFPLAPSSKSTSGG
VL: DIQMTQSPLSLSASVGDRVTITCRASQGIGHYLAWYQQKPGKVPKLLIYTASTLQSGVPSRFSGSGSGTDFTLTINSLQPEDVATYYCQQFNSYPHTFGQGTRLDIK
modifications: IgG constant regions; Synthetically generated peptide
Regarding B1, the “staining pattern in SW480 mouse xenograft sections” value in the assay with Tie1 was “consistent with staining of mouse endothelial cell Tie1”.

B2: DX-2210: E3 antibody in which the light chain has been germlined (antibody, V domains shown)
VH: B1 VH
VL: B1 VL with L9S, N76S, D105E
With B2, the “staining of HUVEC control cells” value with HUVEC is listed as “stained positively”.

B3: parental E3 Fab: soluble Fab fragment of the parental E3 anti-Tie1 antibody (antibody, V domains shown)
VH: B1 VH
VL: B1 VL
Regarding B3, the off-rate (koff) (commonly a measure of how fast the partners let go of each other) with human Tie1 Fc (Human Tie1 Fc coated on CM5) was determined as 0.00105 s⁻¹. In the assay with human Tie1 Fc (Human Tie1 Fc coated on CM5, 750 RU), the kon (as a rule, a measure of how fast the partners come together) was found to be 88100 M⁻¹ s⁻¹.
